Source: patent publication US20260242478A1 (published 2026)

B1: Phage-3035 (peptide)
peptide: LMPLCVPVWMCSGF
notes: Peptide-180 library clone, tested as clonal phage supernatant (pIII display)
B2: Phage-3034 (peptide)
peptide: YAHICKPSWMCDGF
notes: as for B1
B3: Phage-3036 (peptide)
peptide: IIPACVPPWMCSGF
notes: as for B1
B4: Phage-3033 (peptide)
peptide: ELLMCRPAWMCDGF
notes: as for B1

Experiments:
PSMA Fab (006 PSMA Fab) [1] = target: T1, PSMA Fab (006 PSMA Fab); assay: clonal phage ELISA; biotinylated PSMA Fab on neutravidin plate, wells pre-incubated with PSMA antigen (competitor); anti-M13 HRP detection
T1 construct: also called Anti-PSMA Fab; anti-PSMA Fab
Procedure: (§1) Clonal phage were harvested as crude supernatants and screened via standard ELISAs. […] Prior to the addition of clonal phage. wells were incubated with blocking buffer and PSMA antigen or blocking buffer alone. Without washing or aspirating, clonal phage supernatants were then added to the wells and incubated for a short time. Wells were then washed followed by detection of bound phage using a horse radish conjugated anti-M13 antibody.

PSMA Fab (006 PSMA Fab) [2] = target: T1, PSMA Fab (006 PSMA Fab); assay: clonal phage ELISA; biotinylated PSMA Fab on neutravidin plate, blocking buffer alone; anti-M13 HRP detection;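 further: crude clonal phage supernatants added without washing to wells pretreated with blocking buffer with or without PSMA antigen, short incubation, then washed before detecting bound phage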
Procedure: as §1

[3] = target: T2, Anti-PSMA Fab (006 PSMA Fab) (biotinylated (site not stated)); assay: clonal phage ELISA, biotinylated PSMA Fab on neutravidin plates, anti-M13 HRP detection
T2 construct: Biotinylated PSMA Fab captured on neutravidin coated plates

[4] = target: T2, Anti-PSMA Fab (006 PSMA Fab); assay: clonal phage ELISA on PSMA Fab pre-incubated with PSMA antigen as competitor, anti-M13 HRP detection
Procedure: as §1

PSMA Fab [5] = target: T3, PSMA Fab; assay: clonal phage ELISA on biotinylated PSMA Fab captured on neutravidin, anti-M13 HRP detection;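 further: crude clonal phage supernatants added to wells pretreated with PSMA antigen in blocking buffer or with blocking buffer only, then briefly incubated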
T3 construct: Biotinylated and captured on neutravidin plates in the phage ELISA; also called Anti-PSMA Fab; 006 PSMA Fab
Procedure: as §1

PSMA Fab [6] = target: T3, PSMA Fab; assay: clonal phage ELISA on captured PSMA Fab pre-incubated with PSMA antigen (competitor)
Procedure: as §1

PSMA Fab [7] = target: T4, PSMA Fab (biotinylated (site not stated)); assay: phage ELISA; biotinylated PSMA Fab on neutravidin plate, clonal phage supernatant, anti-M13 HRP detection;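 further: wells preincubated with PSMA antigen in blocking buffer or with blocking buffer only before clonal phage were added for a short incubation, then bound phage detected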
T4 construct: also called Anti-PSMA Fab; 006 PSMA Fab

PSMA Fab [8] = target: T4, PSMA Fab; assay: phage ELISA; PSMA Fab on plate pre-incubated with PSMA antigen as competitor, anti-M13 HRP detection;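 further: crude clonal phage supernatants added to Fab-coated wells still holding PSMA antigen in blocking buffer, with bound phage as read-out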
Procedure: as §1

Row | Binder | Phage binding ELISA signal, Anti-PSMA Fab in presence of PSMA antigen (PSMA Fab (006 PSMA Fab) [1]) | Phage binding ELISA signal, Anti-PSMA Fab (PSMA Fab (006 PSMA Fab) [2]) | Phage binding ELISA signal, Anti-PSMA Fab [3] | Phage binding ELISA signal, Anti-PSMA Fab with PSMA antigen [4] | other results
1 | DSIMCRPAWMCAGF [Phage-3029] | 0.0945 | 2.19 | – | – | –
2 | STMMCVPPWMCMGF [Phage-3013] | – | – | 2.21 | 0.0775 | –
3 | HHQLCKPLWMCEGF [Phage-3030] | 0.13 | 2.19 | – | – | –
4 | ANVACIPPWMCLGF [Phage-3016] | – | – | 2.2 | 0.109 | –
5 | VQGVCVPSWMCTGF [Phage-3017] | – | – | 2.2 | 0.0875 | –
6 | B1 | – | – | – | – | Phage binding ELISA signal, Anti-PSMA Fab (PSMA Fab [5]): 2.18; Phage binding ELISA signal, Anti-PSMA Fab with PSMA antigen (PSMA Fab [6]): 0.106
7 | B2 | – | – | – | – | Phage binding ELISA signal, Anti-PSMA Fab (PSMA Fab [5]): 2.18; Phage binding ELISA signal, Anti-PSMA Fab with PSMA antigen (PSMA Fab [6]): 0.108
8 | AELLCVPTWMCMGF [Phage-3014] | – | – | 2.2 | 0.0679 | –
9 | PLVVCKPAWMCIGF [Phage-3025] | 0.0979 | 2.19 | – | – | –
10 | WEPVCKPDWMCNGF [Phage-3011] | – | – | 2.21 | 0.08 | –
11 | QWLRCEPEWMCIGF [Phage-3012] | – | – | 2.21 | 0.212 | –
12 | VLPVCKPLWMCKGL [Phage-3027] | 0.234 | 2.19 | – | – | –
13 | EIPVCRPAWMCLGL [Phage-3000] | – | – | – | – | Phage binding ELISA signal, Anti-PSMA Fab (PSMA Fab [7]): 2.22; phage binding ELISA signal (Anti-PSMA Fab, PSMA antigen present) (PSMA Fab [8]): 0.0698
14 | EGVVCIPEWMCKGF [Phage-3032] | – | – | – | – | Phage binding ELISA signal, Anti-PSMA Fab (PSMA Fab [5]): 2.18; Phage binding ELISA signal, Anti-PSMA Fab with PSMA antigen (PSMA Fab [6]): 0.0637
15 | MMPLCMPTWMCEGF [Phage-3001] | – | – | – | – | Phage binding ELISA signal, Anti-PSMA Fab (PSMA Fab [7]): 2.22; phage binding ELISA signal (Anti-PSMA Fab, PSMA antigen present) (PSMA Fab [8]): 0.075
16 | PAEWCIPVWMCTGF [Phage-3015] | – | – | 2.2 | 0.0732 | –
17 | B3 | – | – | – | – | Phage binding ELISA signal, Anti-PSMA Fab (PSMA Fab [5]): 2.18; Phage binding ELISA signal, Anti-PSMA Fab with PSMA antigen (PSMA Fab [6]): 0.212
18 | SEVMCVPQWMCNGF [Phage-3008] | – | – | 2.21 | 0.0981 | –
19 | IESRCVPEWMCYGF [Phage-3019] | 0.0726 | 2.2 | – | – | –

Row | Binder | Phage binding ELISA signal, Anti-PSMA Fab in presence of PSMA antigen (PSMA Fab (006 PSMA Fab) [1]) | Phage binding ELISA signal, Anti-PSMA Fab (PSMA Fab (006 PSMA Fab) [2]) | Phage binding ELISA signal, Anti-PSMA Fab [3] | Phage binding ELISA signal, Anti-PSMA Fab with PSMA antigen [4] | other results
20 | MLPWCVPHWMCDGF [Phage-3003] | – | – | – | – | Phage binding ELISA signal, Anti-PSMA Fab (PSMA Fab [7]): 2.21; phage binding ELISA signal (Anti-PSMA Fab, PSMA antigen present) (PSMA Fab [8]): 0.132
21 | HEAMCRPTWMCHGF [Phage-3018] | 0.0722 | 2.2 | – | – | –
22 | GGLRCEPMWMCHGF [Phage-3021] | 0.122 | 2.2 | – | – | –
23 | WWPSCVPEWMCAGL [Phage-3009] | – | – | 2.21 | 0.129 | –
24 | TVPKCVPNWMCDWL [Phage-3023] | 0.0864 | 2.19 | – | – | –
25 | WEILCKPEWMCSGF [Phage-3031] | 0.105 | 2.19 | – | – | –
26 | GMPYCVPEWMCSWL [Phage-3010] | – | – | 2.21 | 0.0827 | –
27 | DMRRCEPIWMCVGF [Phage-3028] | 0.0954 | 2.19 | – | – | –
28 | EEKMCTPQWMCSGF [Phage-3020] | 0.0688 | 2.2 | – | – | –
29 | MYHMCRPSWMCEGF [Phage-3007] | – | – | 2.21 | 0.142 | –
30 | VEPMCRPAWMCLGF [Phage-3004] | – | – | 2.21 | 0.0882 | –
31 | VDVLCVPSWMCSWL [Phage-3026] | 0.0683 | 2.19 | – | – | –
32 | VMVECRPAWMCNGF [Phage-3006] | – | – | 2.21 | 0.0636 | –
33 | IERLCMPMWMCTGL [Phage-3024] | 0.0679 | 2.19 | – | – | –
34 | B4 | – | – | – | – | Phage binding ELISA signal, Anti-PSMA Fab (PSMA Fab [5]): 2.18; Phage binding ELISA signal, Anti-PSMA Fab with PSMA antigen (PSMA Fab [6]): 0.087
35 | YQLLCKPEWMCVGF [Phage-3002] | – | – | – | – | Phage binding ELISA signal, Anti-PSMA Fab (PSMA Fab [7]): 2.21; phage binding ELISA signal (Anti-PSMA Fab, PSMA antigen present) (PSMA Fab [8]): 0.0672
36 | ALPMCEPFWMCTGF [Phage-3005] | – | – | 2.21 | 0.0628 | –
37 | DHLMCKPSWMCKGF [Phage-3022] | 0.0924 | 2.19 | – | – | –
